Results on 84 variants are retold here after the RNAGym collection of RNA variant scans (doi:10.1093/molbev/msab373).

B1: Azoarcus group I ribozyme (parent)
chain: GUGCCUUGCGCCGGGAAACCACGCAAGGGAUGGUGUCAAAUUCGGCGAAACCUAAGCGCCCGCCCGGGCGUAUGGCAACGCCGAGCCAAGCUUCGGCGCCUGCGCCGAUGAAGGUGUAGAGACUAGACGGCACCCACCUAAGGCAAACGCUAUGGUGAAGGCAUAGUCCAGGGAGUGGCGAAAGUCACACAAACCGG

This series covers variants of B1. Kind of series: reverse-splicing fitness (ratio to wild type); higher = more active; in vitro selection; Mg2+ level not given. In a few lines: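 An in vitro group I ribozyme library with randomized positions was T7-transcribed and gel-purified. In triplicate, 10 pmol RNA in EPPS pH 7.5 was reacted with 50 pmoles of a 30-nt RNA substrate for 1 h at 37 °C across several added MgCl2 levels (1–48 mM), then stopped with EDTA. Products were reverse transcribed from a substrate-complementary primer, PCR-amplified and sequenced (HiSeq 4000). Fitness is a variant's read proportion after selection over that before, normalised to wild type.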
Take C82A A111C A120G C150A C169G U176A: the reverse-splicing fitness was determined as 0.0187.
Under C82U A111U C150U C169G U176G stands 0.00639; under C82U A111C A145U C150U C169U, 0.0107.
For the variant C82U A111U A120C A145G U176G, the reverse-splicing fitness stood at 0.00517.
A111U A120G A145G C169A U176G: the reverse-splicing fitness was 0.00472.
Under C82A A120C A145C C150U C169A U176A stands 0.0161; under C82G A111G A145C C169A U176C, 0.00787; under C82G A111G A145C C169A U176G, 0.00537.
Under C82U A120C A145C C169A stands 0.00538; under C82G A111G A120G C150A C169A U176G, 0.00698.
Regarding C82U A120G A145G C150A C169G U176C, the reverse-splicing fitness was 0.0255.
On to C82U A111U A120U A145C C150A C169U U176G, for which the reverse-splicing fitness stood at 0.00213.
Consider C82U A111G A120U C150U C169A, for which the reverse-splicing fitness was determined as 0.00334.
In the case of C82G A111G A120C A145U C150G C169G U176A, the reverse-splicing fitness stood at 0.00957.
C150U U176G: the reverse-splicing fitness came out at 0.306.
Next, C150U U176C: 0.869; C82G A111U A120U A145C C150G C169U U176A: 0.00273; A111C A120C A145G C150U C169A U176G: 0.00559.
With C82G A111C A120C A145U C150G U176G, the reverse-splicing fitness came out at 0.00383.
On to C82A A111U A120U A145G C150U C169A U176C, for which the reverse-splicing fitness turned out to be 0.00423.
For the variant C82A A111G A120G A145C C169G U176A, the reverse-splicing fitness turned out to be 0.0248.
Next, C82U A111U A145U C150G C169U: 0.00858; A111C A120C A145U C150U C169A: 0.0112; C82U A111C A145G C150A C169G U176A: 0.014.
Turning to C82G A145C C150U U176C, the reverse-splicing fitness stood at 0.0809.
Regarding C82U A120G A145C C150G C169A U176G, the reverse-splicing fitness was found to be 0.00406.
Turning to C82A A111C A120C C169A U176C, the reverse-splicing fitness was 0.0179.
Take C82U A111G A120U A145U C169G U176A: the reverse-splicing fitness turned out to be 0.00205.
Turning to C82G A111C A120G C150A C169A, the reverse-splicing fitness was 0.0116.
For the variant A111U A120C C150A C169A U176C, the reverse-splicing fitness worked out at 0.0133.
Take C82G A111U A120G A145G C150U C169A: the reverse-splicing fitness came out at 0.0121.
As to A145G C150A U176C, the reverse-splicing fitness was 0.464.
Consider C82A A120C A145G C150G C169G U176C, for which the reverse-splicing fitness amounted to 0.0127.
Under C82A A120C A145G C150G C169G U176G stands 0.00719; under C82A A111C A120U A145C C169G U176G, 0.00255; under A120U A145U C150G C169U U176C, 0.0175.
For the variant C82G A120G A145C C150U U176A, the reverse-splicing fitness worked out at 0.00928.
Next, C82A A111U A120G C150G C169U: 0.00851.
As to C82A A120G A145G U176A, the reverse-splicing fitness turned out to be 0.0143.
On to C82G A111C A145G C150G U176C, for which the reverse-splicing fitness amounted to 0.0214.
Take A111C A145G C150G C169U U176G: the reverse-splicing fitness was 0.00713.
C82A A120U A145U C169G U176A: the reverse-splicing fitness came out at 0.00173.
For the variant C82G C169G U176A, the reverse-splicing fitness was 0.0155.
Regarding A111G A145U C150G C169A, the reverse-splicing fitness is 0.0108.
In the case of C82A A111G A145C C150U C169G U176A, the reverse-splicing fitness was found to be 0.0215.
C82A A111G A120G C150G C169U U176C: the reverse-splicing fitness is 0.0135.
As to C82U A111G C150A, the reverse-splicing fitness came out at 0.0385.
As to C82U A111U A120G A145C C150G C169U, the reverse-splicing fitness was found to be 0.00686.
On to C82G A111G A120G A145G C150A U176A, for which the reverse-splicing fitness turned out to be 0.0107.
As to C82U A111C A120U A145C U176C, the reverse-splicing fitness turned out to be 0.00705.
Regarding C82G A111C A120C C150A, the reverse-splicing fitness stood at 0.0114.
For the variant C82G A111U A120G A145G C150A U176G, the reverse-splicing fitness stood at 0.00873.
Take A111C A120G A145C C150U C169U U176G: the reverse-splicing fitness turned out to be 0.00528.
C82U A111U A120C A145U C150A C169A U176G: the reverse-splicing fitness was determined as 0.00478.
For the variant A111C A120C C150U C169U, the reverse-splicing fitness turned out to be 0.113.
As to C82A A111C A120C A145G C150A C169A, the reverse-splicing fitness is 0.0106.
As to C82G A111C A120G A145C C150U C169G U176C, the reverse-splicing fitness was 0.0133.
Next, A111C A145G C150G C169A: 0.00939.
For C82A A120U A145G C150U C169A U176C, the reverse-splicing fitness turned out to be 0.00287.
Under A120U A145G C150U C169U U176C stands 0.108; under C82G A120U C150A C169A, 0.00401.
Under C82G A120G C150G C169A U176A stands 0.0109; under A111C A120U C169U U176C, 0.0214.
Under C82G A111U A120U A145C C150A U176C stands 0.00373; under A111U A120U C150G C169U U176G, 0.0029; under C82A A120U A145C C169A U176C, 0.0019.
Regarding C82A A111G A145C C169A, the reverse-splicing fitness came to 0.0076.
In the case of C82A A120C C150U U176G, the reverse-splicing fitness turned out to be 0.0111.
Turning to C82G A111C A120G A145G C150A C169G, the reverse-splicing fitness worked out at 0.00949.
Next, C82A A120G C150U C169A U176G: 0.00471; A111U A145U C150G U176G: 0.025; C82U A111U A120C A145G C150A U176G: 0.00675.
Next, C82G A111C A120U A145G C169U U176A: 0.00525; C82G A111G C150G C169A U176A: 0.014; A111G A120C A145G C150A: 0.166.
Take C82G A120C C150U U176G: the reverse-splicing fitness amounted to 0.0136.
Next, A111C A120C C150A C169U U176G: 0.00635; C150G C169U U176A: 0.0131; C82A A111C A120U U176G: 0.00382.
Turning to C82U A120U C150A C169U, the reverse-splicing fitness was 0.00341.
Take C82U A120C A145U C150G C169U: the reverse-splicing fitness stood at 0.00863.
As to A120C A145G C150G C169G, the reverse-splicing fitness turned out to be 0.00987.
Regarding A120C A145U C150G C169U U176C, the reverse-splicing fitness was found to be 0.0535.
On to C82U A111U A120C C150A C169A U176C, for which the reverse-splicing fitness worked out at 0.0182.
